These results are taken from publication PMC11551761, “Probing the mechanism of nick searching by LIG1 at the single-molecule level”.

In data set [1] the target is LIG1 C-terminal (human, UniProt P18858 261-919, del1-260). The data set is described as follows: BLI; no Mg2+ listed in buffer; 1 mM HEPES pH 7.4, 20 mM NaCl, 0.02% BSA, 0.002% Tween 20 (BLI, C-Trap, TIRF; TIRF plus oxygen scavenger and 10 mM Trolox); BLI sensors hydrated at 20 C, assay. The settings on record: protein: recombinant; tags: 6xHis (pET-24b); AF488 or Cy5 labelled for single-molecule assays; Methods says 3'); nicked duplex.
LIG1 C-terminal, sequence (P18858 261-919, stated change not applied): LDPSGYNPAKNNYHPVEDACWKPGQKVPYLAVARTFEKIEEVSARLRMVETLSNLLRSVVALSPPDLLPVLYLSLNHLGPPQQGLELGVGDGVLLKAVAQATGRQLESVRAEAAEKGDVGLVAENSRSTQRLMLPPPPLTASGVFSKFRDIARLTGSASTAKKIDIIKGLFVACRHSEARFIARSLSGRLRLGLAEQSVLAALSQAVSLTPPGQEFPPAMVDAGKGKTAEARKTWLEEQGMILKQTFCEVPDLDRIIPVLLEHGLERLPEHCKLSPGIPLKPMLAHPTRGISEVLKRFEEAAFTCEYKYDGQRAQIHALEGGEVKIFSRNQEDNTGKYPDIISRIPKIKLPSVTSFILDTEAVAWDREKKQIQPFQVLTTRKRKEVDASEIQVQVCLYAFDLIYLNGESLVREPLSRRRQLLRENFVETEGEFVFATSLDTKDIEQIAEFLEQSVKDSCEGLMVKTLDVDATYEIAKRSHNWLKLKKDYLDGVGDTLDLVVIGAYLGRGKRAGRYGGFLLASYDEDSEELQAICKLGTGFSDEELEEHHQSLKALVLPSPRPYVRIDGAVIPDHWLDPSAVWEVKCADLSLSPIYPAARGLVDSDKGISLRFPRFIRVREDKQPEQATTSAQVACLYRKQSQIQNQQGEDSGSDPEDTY

In data set [2] the target is T1, LIG1 full-length (human, UniProt P18858 1-919). Described as above. As to conditions: protein: recombinant; tags: 6xHis (pET-24b); AF488 or Cy5 labelled for single-molecule assays; Methods says 3'); nicked duplex.
T1 sequence (P18858 whole entry): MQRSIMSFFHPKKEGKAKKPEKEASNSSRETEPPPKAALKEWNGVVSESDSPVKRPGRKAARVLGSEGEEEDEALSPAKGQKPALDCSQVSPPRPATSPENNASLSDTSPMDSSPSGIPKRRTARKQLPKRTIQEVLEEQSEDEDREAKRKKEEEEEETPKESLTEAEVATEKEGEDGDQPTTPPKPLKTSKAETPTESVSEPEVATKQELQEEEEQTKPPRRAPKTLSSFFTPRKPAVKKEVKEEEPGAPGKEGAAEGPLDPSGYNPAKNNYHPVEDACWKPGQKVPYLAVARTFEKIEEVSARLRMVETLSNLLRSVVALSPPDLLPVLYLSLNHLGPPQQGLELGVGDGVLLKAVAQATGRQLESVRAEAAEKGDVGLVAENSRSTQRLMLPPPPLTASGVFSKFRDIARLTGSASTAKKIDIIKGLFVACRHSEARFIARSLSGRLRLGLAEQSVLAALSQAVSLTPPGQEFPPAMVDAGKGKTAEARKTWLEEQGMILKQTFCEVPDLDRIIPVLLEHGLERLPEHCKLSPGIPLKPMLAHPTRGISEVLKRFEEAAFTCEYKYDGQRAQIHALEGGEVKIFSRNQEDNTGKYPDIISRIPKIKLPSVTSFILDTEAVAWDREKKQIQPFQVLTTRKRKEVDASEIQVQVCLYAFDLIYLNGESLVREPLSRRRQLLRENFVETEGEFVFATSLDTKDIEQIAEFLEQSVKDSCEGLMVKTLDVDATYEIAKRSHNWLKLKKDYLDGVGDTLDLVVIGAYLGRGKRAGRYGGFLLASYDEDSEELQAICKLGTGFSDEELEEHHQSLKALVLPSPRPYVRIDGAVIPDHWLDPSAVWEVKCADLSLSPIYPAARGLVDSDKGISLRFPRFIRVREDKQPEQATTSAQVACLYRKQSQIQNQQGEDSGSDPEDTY
Data set [3] addresses T1, LIG1 full-length. Nature of the data set: single-molecule TIRF; no Mg2+; bound lifetimes 0.9 s (70%), 8 s (30%); unbound 42 s; 1 mM HEPES pH 7.4, 20 mM NaCl, 0.02% BSA, 0.002% Tween 20 (BLI, C-Trap, TIRF; TIRF plus oxygen scavenger and 10 mM Trolox); BLI sensors hydrated at 20 C, assay. The settings on record: protein: recombinant; tags: 6xHis (pET-24b); AF488 or Cy5 labelled for single-molecule assays; label: 5'-biotin on Up; 3'-AF488 on Down; nicked duplex, blunt; nick between 18-nt Up and 16-nt Down on 34-nt template.

B1: nick DNA 3'-dG:C/5'-Bio (BLI) (dsDNA)
DNA 1: CATGGGCGGCATGAACCGGAGGCCCATCCTCACC
DNA 2: GGTGAGGATGGGCCTCCGGTTCATGCCGCCCATG
modifications: single nick
Turning to B1, the Kd in data set [1] turned out to be 196 nM; in data set [2], 95 nM.

B2: 34-mer single-nick DNA (Up-OH + Down / Template T) (dsDNA)
DNA 1: CATGGGCGGCATGAACCA
DNA 2: GAGGCCCATCCTCACC
DNA 3: GGTGAGGATGGGCCTCTGGTTCATGCCGCCCATG
modifications: 5'-phosphate on Down; 3'-OH at nick
Take B2: the binding result in data set [3] was “binds”.
